This is an account of results in patent US20210139593A1 (UNIVERSIDAD DE CHILE, published 2021).

The test addresses T1, recombinant MICA (rMICA) (UniProt Q29983 24-307, limits assumed).
T1 construct: Recombinant MICA coated on ELISA plates
T1 sequence (looked up): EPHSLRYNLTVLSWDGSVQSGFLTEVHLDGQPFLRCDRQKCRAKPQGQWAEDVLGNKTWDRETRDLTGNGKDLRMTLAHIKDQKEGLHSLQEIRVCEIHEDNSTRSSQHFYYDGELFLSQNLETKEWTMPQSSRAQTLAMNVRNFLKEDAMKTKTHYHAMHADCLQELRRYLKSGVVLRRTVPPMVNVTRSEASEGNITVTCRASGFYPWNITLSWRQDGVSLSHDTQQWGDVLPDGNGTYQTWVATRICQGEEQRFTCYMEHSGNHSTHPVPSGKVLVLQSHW
In words: method not stated.

B1: anti-MICA scFv protein (scFv-aMICA) (scFv)
scFv: EFGVVMTQSPDFQSVTPKEKVTITCRASQSIGRSIHWYQQKPDQSPKLLVMYASQSFSGVPSRFSGSGSGTDFTLTINSLEAEDAATYYCHQSYSVPRSFGQGTKLEIKRTVAAGGSSRSSSSGGGGSGGGGQVQLQESGPGLVKPSQTLSLTCTVSGDSVRSAYSSWNWIRQPPGKGLEWIGQIHPNGNTYYNPSLMSRITVSIDTSKNQFSLKLDSVTAADTAVYFCATEGVTSESGSFDIWGQGRMVIVSSASTKGPSVAS
notes: Monomeric soluble scFv produced from the phagemid pUCH1 Amber; also called scFv-MICA
Regarding B1, the Ka came to 7.4e+06 M⁻¹ and the dissociation constant (Kd) stood at 135 nM.
